Test [1] addresses T1, 体外纯化的组蛋白H1.4(WT H1.4), fusion protein expressed from pET-28a-WT H1.4 (Homo sapiens (Human), UniProt P10412 1-219).
T1 construct: Expressed in E. coli BL21(DE3) and purified; 100 ng was loaded, denatured, for the Western blot; also called 野生型H1.4
Put plainly: Western blot, purified protein. (A western blot detects proteins with antibodies after separation by electrophoresis.)

Test [2] concerns the target T2, 体外纯化的H1.4移码突变蛋白(H1.4 K157E fs*), fusion protein expressed from pET-28a-H1.4 K157E.
T2 construct: Expressed in E. coli BL21(DE3) and purified; 100 ng was loaded, denatured, for the Western blot; also called Lys157Glu fs*39; H1.4 K157E移码突变体
T2 chain: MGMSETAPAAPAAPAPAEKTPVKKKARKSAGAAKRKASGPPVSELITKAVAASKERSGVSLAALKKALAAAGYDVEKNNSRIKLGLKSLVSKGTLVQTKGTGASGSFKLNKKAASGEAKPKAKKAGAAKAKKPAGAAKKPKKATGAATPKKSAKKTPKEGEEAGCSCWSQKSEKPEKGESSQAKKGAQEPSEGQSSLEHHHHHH
Put plainly: Western blot, 100 ng purified protein.

Test [3] deals with T3, 内源过表达的组蛋白H1.4(WT H1.4), Flag fusion expressed from pFLAG-CMV-WT H1.4 in NIH 3T3 cells.
T3 construct: Overexpressed in mouse NIH 3T3 cells; Tested as SDS cell lysate (50 ug total protein) by Western blot; also called 野生型H1.4
Nature of the test: Western blot, lysate of transfected NIH 3T3 cells.

B1: 特异性结合H1.4移码突变蛋白的单克隆抗体 (hybridoma cell line A1) (antibody, mouse IgG1, kappa, V domains shown)
VH: QIQLVQSGPELKKPGETVKISCKASGYTFTDYSMQWMKQAPGKGLKWMGWIDTGTGEPSYADDFKGRFAFSLETSASTAYLQINNLKNEDTATYFCARRSYGYFAFWGQGTLVAVSA
VL: DVVMTQTPLSLPVSLGDQASISCRSSQNIVHVNGNTYLEWYLQKPGQSPKLLIYKVSNRFSGVPDRFSGSGSGTEFTLKISRVEAEDLGVYYCFQGSHVPFTFGAGTKLELKR
notes: also called H1.4移码突变抗体; H1.4移码突变的抗体
As to B1, the binding result in test [1] was “no binding (tested: 100ng)”; in test [2] it was “binds”; in test [3] it was “no binding (tested: 50μg total lysate protein)”.

The record behind these values is patent publication CN113480646A (INST BIOPHYSICS CAS; UNIV PEKING FIRST HOSPITAL, dated 2021).
